In article PMC11445239:
Values joined by “and” are separate entries in the source; they are usually repeats but may differ in a detail not shown here. Equal values may be shown once.

How the values were obtained:
[1] = target: activated (Caspase 11-cleaved) mGSDMD-C192A-mEGFP (mouse); assay: single-molecule TIRF imaging with intensity-based stoichiometry analysis; preformed supported lipid bilayer (Egg PC:PI(4,5)P2 99:1 mol %) on glass incubated with 0.5, 1 or 2 nM protein (pre-cleaved WT or mutants, or full-length at 2 nM) for 1 h, washed 15 times with SLB buffer
[2] = target: activated (Caspase 11-cleaved) mGSDMD-C39A-C57A-mEGFP (mouse); assay: as above
[3] = target: activated (Caspase 11-cleaved) mGSDMD-mEGFP, mGSDMD(NTD)-mEGFP (mouse); assay: single-molecule TIRF imaging with intensity-based stoichiometry analysis; preformed supported lipid bilayer of 100% Egg PC (no PI(4,5)P2) incubated with 2 nM active mGSDMD-mEGFP for 1 h, washed
[4] = target: activated (Caspase 11-cleaved) mGSDMD-mEGFP, mGSDMD(NTD)-mEGFP (mouse); assay: single-molecule TIRF imaging with intensity-based stoichiometry analysis; preformed supported lipid bilayer (Egg PC:PI(4,5)P2 99:1 mol %) on glass incubated with 0.5, 1 or 2 nM protein (pre-cleaved WT or mutants, or full-length at 2 nM) for 1 h, washed 15 times with SLB buffer
[5] = target: activated (Caspase 11-cleaved) mGSDMD-mEGFP, mGSDMD(NTD)-mEGFP (mouse); assay: single-molecule TIRF imaging with intensity-based stoichiometry analysis; 2 nM mGSDMD-mEGFP with 20 nM Caspase 11 incubated with LUVs (Egg PC:PI(4,5)P2 99:1 mol %) for 1 h (same pattern at 5 and 2 min and after H2O2), proteoliposomes then fused into a supported lipid bilayer on glass; SLB buffer 150 mM NaCl, 10 mM Hepes pH 7.4

activated (Caspase 11-cleaved) mGSDMD-C192A-mEGFP (domain or fragment)
stoichiometry N [1]: 3 and 2

activated (Caspase 11-cleaved) mGSDMD-C39A-C57A-mEGFP (domain or fragment)
stoichiometry N [2]: 2 and 3 and 4

activated (Caspase 11-cleaved) mGSDMD-mEGFP, mGSDMD(NTD)-mEGFP (domain or fragment)
stoichiometry N [3]: 2
stoichiometry N [4]: 5 and 6 and 9
stoichiometry N [5]: 2 and 3
